Laboratory results reported in the DeepSol protein solubility set.

Test: soluble on expression in E. coli; label from the status in PepcDB or PDB records

Sequence | soluble on expression in E. coli
MSLATLKDVALHAGVSVTTVSNFINNKKKLKDDTRHNILEAIQATGYRHNALAASLKKSSASLRSIGIISIVDQNPFFSELFFKLENECFKQDFTVISCFRHKDKEDLHTYINLMSGRVDGIILISLKRDKIDNVIKHIHAVPVVAIAFDIGDVMSLCGGTEFNLHNETGGYIAGRFLLSKGHKKIACVTGPKALKTTVNRIAGLKKALADFNLPEDSVDFIEGNYTYQSGVDAMYQLFSSVALPTAIICHNDLMAIGVQNAANELGLKIPRELSVIGYDDIEMSKLSFPSLTTVRIPLDDIACQALEGLSMKMATPGSKAIISATPSLVVRGSVSKGIITITTDPNSSSVDKLAAALEHHHHHH | soluble
MSLAYDNVMKDKKIRVGLMTDSIPGGFYNEKGEWGGFDYDIATEIAKRMGVDIERVQVNNKTRIAYVQQGRVDISVSNMTHTRERDKSVDFSITYFFDGQKVLAKKGQFKSVKDMVGKKIATMQGTTSEVNVKRALKEAGDPNPDQSVISFQKESECFQALQMGRVAGWSTDASILVGYSAKEPGKFELVGNFLAEEPYGIAMPQDDSALRDAVNAALQDMWKDGTYKTIYNKWYGPGTPFEMPLAGQIEMWPEGHHHHHH | soluble
MSLAYETFAFVYDEVMDESLYQKWLDFSNRHLPQGTQQILEMACGTGALAVDFAKSGYDVTALDLSEEMLMIASERAFEEEVPVQFVQGNMLDLSEVGQYQAITCFSDSLCYMANRQEVQQVFDEVYQALEEEGTFIFDVHSTYKIDSVFPEYSYHYQTEEFAFLWDSYAGEKEHSIEHFLTFFVKEQETDEHFVRYDELHQERTYSLDNYLRMLESAGFMNVKVYADFTDEAPTETSERWFFVCQRDEGHHHHHH | soluble
MSLAYGNINQPFSLESLPDELIPENLYQIETDSSRVFQRHQCRRLAHLLLFQLLKIAGKSTALLSQIHRTESGRPYFLDERIDFNISHSGDWVAVILDIRNEEKSAVGIDIEFPKIRNFTALMEHIAPKEEIDWFHHQQDSLNAFYRCWCLREAVLKSQGFGIVKLSNVRHFPEQQKIFSDYCPQGQLWFTDELPIYLAAFVNHQEKLPHFYEWNRESLQIKELEKYVLYEVNEGHHHHHH | not soluble
MSLCIIGSGPGGLCMARALKRQGLDYEQFERHGEVGGVWDINNPGTPMYQSAHFISSRDQSGFIDYPMPAHFPDYPSNRQIFEYVRSFAVAFDLYDRIRFNTAVKDVEKEQDGRWLVTLASGERRRYRAVVCATGCNWDPNMPEVKGQFEGTVRHSVTYKNPDEFKGKRVMVIGADNSGADIACDAAKHADKAFISMRRGYHLIPKHLFGMPVDEFGEKGPQLPMWLARPVFQTILRVINGDTRRFGLPRPDHKLFESHPLLNTQLLHYLQHGDIQVKPDVSHYEGQHVVFKDGTREPLDLVLYATGYKWSCPYAAKYFEWQGGRPRLYLSIFSREHHNLFGIGYVETNSSAYKLFDSEAHAVACYLRDQLHQKTQASHFDQLIATDDPDLSGGIKFVKSQRHEVYLEAHALKKYLRKLFHSEGHHHHHH | not soluble
MSLCRVLSVKPSSYYDWINRDISSQQIHRNQSELLIKAAHSETKERYGFERLHAHLNEQGYDISPYMVRNIKEEHGIKCRRHKRFKVTTDSNHNKLIYDNVLDQQFDVNRPNEAWVSDITYIWTTEGWLYLAGVKDLYTKELVGYAINKRMTADLVCKALNMAIKNKRPSKGLIVHSDRGGQYCSHAYHKIIKQHQFKGSMSGKGNCYDNAPIESFWGVLKNELVYHQDYKTRFAAITDIIRYIELYYNQTRIQKGLGYKSPRQVWFDYYRQAAEGHHHHHH | soluble
MSLDAAGLARSTFFYHQQRLNVPDKHIDLKEAIVEVFTRTNRRYGYRRIHAHLRQDGWNVNHKLVYKLMDELGLKSKVRAKKRYNAYQGTVSHIAENVLDRCFTPDKPNTVWTSDVTEFRIAGTKVYLSPIMDLYDRSIVSYSVSTSPNTAFTSRSLKDAITSQSPGSGLLVHTDQGIQYQHSSWRDLITSIDGIQSMSRKGNCYDNAVMENFFGHLKSEMHHGESFDGLEHFRQALDGYIHWYNHERIQKRLKGLAPMQYRNQTLEPLTAEGHHHHHH | not soluble
MSLDAMAKILLVEDSATQAVEMTMLLQAANHEVVHVANGQLGLSHLKEQAPDLVITDLEMPEINGLQLVESMRANFSHIPSILVTSHGSEELAAEALRRGAAGYVPKTRMSDLLNDTIVDVLGVIRSDASYAKLISTLKKNVFVFDLPSDPELISPLVGLLMQVSAGMELLPSIEMVRLGVAVEHSLTNAMLHGNLEIPRDKQPSHGQLAREGMINDAMKERLSQEPYKSRVTHVEATASEHAIRIVITDQGPGFDTSNVPQAGELDASSLAASADGVGQADKQGLLLIASFVDQMWFNDEGNQITLVKRCGAEGHHHHHH | not soluble
MSLDFATEYVYPAFSELTGTDKIVAFGDHSHKCPIYVPQTPPCTAECPAGEDIRAINRFLNGTDPSDDPLKSAWETATDTNPFPAVMGRICPHPCQSKCNRGVHDESVAINAVEQVLGNYGIEHNLKLKGPGADTGKRVAIIGGGPAGLSAAYQLRRKGHAVTIYDANEKLGGMVLYGIMGYRVDRKVLEAEIGRIIELGVETKMGVTIGKDITLEQLEAEYDAVFIAVGAQKGRALPVPGFEGTPGATNAIDFLKSYEVLGDDIPVGKHVVVIGDGNVSMDVARLALRLGSQATIISGVPREEMACFENEFDDAKNEGTTMHFLTGTVEVLGGASGVTGLRCTKMVKKEKGEEGWNSPIPFLRYKSNGESFEIEADMVVAAIGQATDLSGLGSAASGPWLKVDRNFRIPGREKLFGGGDALKVDLITTAVGHGRKAAYAIDAFLKGEPMPEEGHHHHHH | soluble
MSLDFLSQCTSGGCGAKIESRVLNQLLQHLPETPANERLLVGFEHADDAAVYQITSEKALISTVDFFSPMVNDPLSFGKIAVANALSDVYAMGGTVLYALNLVCFPQKMSKEWLEQMLLGGSLKLKEAGALLAGGHSIYDHEPKYGLAVTGEVHPENLWHNNTPQVGDVLILTKALGVGIIQAAVRGQLAKQTEQKIAQDSMERLNKYAAANARSYAVHACTDVTGFGLLIHAKEMADNQVTLLIDTEALPTITGALAYAAECLVTAAGQRNRQTIGTTIDYSKISMEMQELLFDPQTSGGLLISVAADEAAACLAAIQKEDPVAKIIGEVLPKEQQAVVLLEGHHHHHH | not soluble
MSLDIARIAVHESVAKACPLEAMVAALQGPDVRVETVGDDASFDASDCVVTFSPREAFLDAAWVHGIRAGYDEFDVDAYEAAGTVLTNSTGIHGDTVPETVVGYLTAFARRLHVYRDRQRDNDWTQEPYDAPFTLTGEQVCVVGLGTIGQGVADRTDALGMDVVGVRRSGDPAENVERVYTPDELDAAVADARFVVLCCPLTEETEGMVDAALLAQMRADSYLVNVARGPVVVEDALLNALDTGTIAGAALDAHWAEPLPDDHPLWNHESAIVTPHVAAATSRYHEDIAALVRENVERATRGESLRNRVAEGHHHHHH | not soluble
MSLDIENTLLKQEAWRFIDNTTINPAFDAIQSFATDDTLCRSVGARMVPPTVRGWVHEKTVSLGIQDSKLPDIDKGIAFLQEQGYRVVVRNSGGLAVVLDSGVLNLSMVLPDAERGIAIERGYETMFTLIKDMFVDCNEVIEAKEIVNSYCPGSYDLSIQGQKFAGISQRRMAKGVAVQIYLAVEGDQAARSELIRDFYTISGKDKQTKYSFPDVKPEVMGTLSDLMKENMTVNGCLVRLFNSLRHYAGKLESGTLTPEELDLFPAYYERLIARNDKVLSEGHHHHHH | soluble
MSLDKPYHVKFYSYNFPLPKPVVTAHGHWQRRRGLIVELTDQRGNRGRGEIAPLPWFGTEDLASATDFCRSLKGRITPAQIEKIGDRLPCCGFAFGSAEWELESGSVIENSPNSLSYCQLLPTGEAALDYLASNPQLGASTFKWKIGVGDFAVERDLYGQLWRRLPEGCQIRLDANGGLSVDIAQQWLTLLDRQRENSGPKIQYLEQPLPPGEIDEMFRLQEDFATSIALDEAVCSLAQLAQLYDKGWSGLYILKAAIMGNPRVLNHWLKTHPIPAIFSSVFETAIARGQVLALAQKWNLPDHAVGFAPLREPITEATPDSVEGHHHHHH | soluble
MSLDLRKINLNLLLHLDTLLNELSVSKAAEKSFMSQTAMSHILKQLRDIFDDPLFIRKPHGLQPTQKVLDLAPKIKKFLNYSNDIFEEDTFNPGNDNLFLKTASVGTGEYFILPRLCAHLAKNAPKFVLKISSLSEYLSLEYLLMSELDFAIGPGFVETGNNIIRELLFEEEAVCIMHKSHPLANQELTQDMYLQAEHVDIQFSYMGNENILYKALQGYHQRNIKVIVPNIISALEVVYHTNFITTVPRTLAVTFKDRYQIELHPFPFPKKTFLVNFYYHKRLSNHKPLQWVLDVIKKYCCVNHEGHHHHHH | soluble
MSLDNVIDEVVWVIGDEAILKSDVEEARLAALYEGRKFDGDPYCVIPEELAVQKLYMHQAVLDSIEVPEAEVIQRVDYQISNYIQALGSRERMEAEFNKTSTQIREAMRENARDGLIVQRMQQKLVGDIKVTPAEVRRYFKELPQDSIPYVPTQVEVQIITQQPKIPVAEIEDVKRRLREYTDRINKGESDFSTLALLYSEDRGSAIKGGETGFMGKGQMVPEYANVAFNLQDTKKISKIVESEYGFHIIQLIEKRGDRINTRHILLKPKVSDKELDEANARLDSIANDIRSDKFTFDQAASALSQDKDTRNNHGLMQNPQNQTAKFEMQDLPQEIAKVVDKMNIGEISKAFTMVNPKDGKEVCAIVKLKSRINGHKATITDDYQNLKEIVLDKRREEALQKWIVEKQKHTYVRINPAWQRCDFKYPGWIKKEGHHHHHH | soluble
MSLDPAHTPDPAHPHDQEAAHAEDPARAIGSARLLDVDPLLDDPGTRIVVCCGSGGVGKTTTAAALGLRAAERGRKVVVLTIDPARRLAQSMGIDSLDNIPRRVKGIDDSASGELHAMMLDMKRTFDEIVEAHADRERAAAILSNPFYQSLSAGFAGTQEYMAMEKLGQLRARDEWDLIIVDTPPSRSALDFLDAPKRLGSFLDGKLIRLLTAPAKLGGRAGMKFLNVGMSMMTGTLGKLLGGQLLKDVQTFVAAMDTTFGGFRTRADATYKLLQAPGTAFLVVAAPERDALREAAYFVERLAAEDMPLAGLVLNRVHGSGAAQLSAERALAAAENLDLAADPGSTENLEESRIVDQEGGKAGLRNSPDTYGSSESPADLTPADQTPASSEGSPATDGAVEQLTAGLLILHAERMQLLSREQRTRDRFAALHPEVAVAEVAALPGDVHDLTGLRDIGDRLAANRPELPTSPGGALEHHHHHH | soluble
MSLDRVTISHMADALGVTKSTVSRAMNGYPDISEATQLRVKRMAEKMGYQPLSHAQAIKTGRARSLGLVLQFSDHDAQRPFLAEFLAGLSAGAHTDGWTLTVAAADGHDELIETFRAILRDGKADGFILPRAMSTDPRVYLLRDAGVPFVLFGRQDKEEGCAWFDVLGEEAMCDAVLHLATLGHRRIGFINGGLQYAYARLRAAGFADGMQIAGLEMDDSLIADDAMTMESGAVAAARILDTTNPPTALVCAVDFAALGAYRAAADRGIIIGRDLSIIGYDGIPEGAFAHPPLTTFAVDNRAAGFALATLLIQRIKGEPLETLRRLVPATFVERASTGEGHHHHHH | not soluble
MSLDRVYHEFGATLRQLYQQDTPIIALCAAGIVIRTLAPLLLEKGAEPPVLAVAEDGSAVVPLLGGLGGVNVMAREIAAGLGVAAAITTSGELRFGTCLLNPPSGYALGDLELGKRFVSDLLGGESVRIEGAAPWLAAAKLPENDQARLTIRVGSAEREPVANELLIYPRSVLVACRGQRLAGEADSDLATHIRQALHQARIAVQSVACLLAADRDMADRALHQAAAQLGVPLRFLPAADSVAELAQQAVPQLLPPLKVGEDIAIAVASQPLDPEQIGRPREGHHHHHH | not soluble
MSLDSSLFRKPSPRPLRQPTTPFHLQKTLILDLDETLIHSTSRPIHYPGGSSGGGGLLGLSVGGVFGSGRANEGHTVEVVVNGRSTMYHVYKRPYVDHFLKKVASWYTLVIFTASMPEYADPVIDWLDGGRNLFARKLYRENCHVQPNGSYIKDLTLVEKDLSRVCFMDNSPVSYSWNKGRLFSTWRSLEPDRMGTANALPIEGWTSDPNDEALLHSIPVLDSLRFVNDVRRVLGIRGAARARSEGHHHHHH | soluble
